From article PMC7331820, “Identification of the amino acid position controlling the different enzymatic activities in walnut tyrosinase isoenzymes (jrPPO1 and jrPPO2)” (Scientific Reports, 2020)

Experiments:
Test in all cases: photometric initial rates, Michaelis-Menten fit
jrPPO1 = biological target: T1, jrPPO1 (Juglans regia, UniProt C0LU17); type: biochemical; details: pH 6.0, 50 mM sodium phosphate, 2.0 mM SDS as activator, 25 °C
T1 construct: gene PPO1; latent enzyme (active domain plus C-terminal domain, no transit peptide), expressed in E. coli from pGEX-6P-1 with N-terminal GST tag (tag absent by mass)
T1 sequence (C0LU17 entry or part of it): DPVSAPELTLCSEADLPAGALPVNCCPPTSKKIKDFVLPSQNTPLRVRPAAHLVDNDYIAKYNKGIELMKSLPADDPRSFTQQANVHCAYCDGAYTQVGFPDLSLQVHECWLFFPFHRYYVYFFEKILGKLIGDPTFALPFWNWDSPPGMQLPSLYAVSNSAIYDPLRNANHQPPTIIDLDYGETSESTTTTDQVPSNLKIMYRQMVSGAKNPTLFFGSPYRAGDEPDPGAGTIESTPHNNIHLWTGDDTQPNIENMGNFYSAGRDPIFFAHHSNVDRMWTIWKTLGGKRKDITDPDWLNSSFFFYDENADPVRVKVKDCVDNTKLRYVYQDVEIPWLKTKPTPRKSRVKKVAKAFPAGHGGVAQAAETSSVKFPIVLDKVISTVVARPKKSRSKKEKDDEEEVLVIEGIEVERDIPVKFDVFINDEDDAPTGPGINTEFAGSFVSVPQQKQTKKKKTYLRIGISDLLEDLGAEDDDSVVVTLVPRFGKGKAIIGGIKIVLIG
Description: (§1) photometric initial rates, Michaelis-Menten fit on jrPPO1

jrPPO2 = biological target: T2, jrPPO2 (Juglans regia, UniProt A0A2I4DDQ0, D361N/F398L/S401P/D582N); type: biochemical; details: pH 6.0, 50 mM sodium phosphate, 2.5 mM SDS as activator, 25 °C
T2 construct: gene LOC108979139; latent enzyme (active domain plus C-terminal domain, no transit peptide), E. coli, pGEX-6P-1, N-terminal GST tag (absent by mass)
Description: (§2) photometric initial rates, Michaelis-Menten fit on jrPPO2

[1] = substrate: O=C(O)Cc1ccc(O)cc1; type: biochemical, Juglans regia; details: pH 6.0, 50 mM sodium phosphate, 2.5 mM SDS as activator, 25 °C
Description: as §2

[2] = substrate: O=C1c2c(O)cc(O)cc2O[C@H](c2ccc(O)c(O)c2)[C@H]1O; type: biochemical, Juglans regia; details: pH 6.0, 50 mM sodium phosphate, 2.5 mM SDS as activator, 10% DMSO, 25 °C
Description: as §2

[3] = substrate: O=C(O)c1cc(O)c(O)c(O)c1; type: biochemical, Juglans regia; details: pH 6.0, 50 mM sodium phosphate, 2.5 mM SDS as activator, 25 °C
Description: as §2

[4] = substrate: NCCc1ccc(O)c(O)c1; type: biochemical, Juglans regia; details: pH 6.0, 50 mM sodium phosphate, 2.5 mM SDS as activator, 25 °C
Description: as §2

[5] = substrate: N[C@@H](Cc1ccc(O)c(O)c1)C(=O)O; type: biochemical, Juglans regia; details: pH 6.0, 50 mM sodium phosphate, 2.5 mM SDS as activator, 25 °C
Description: as §2

[6] = substrate: O=C(O)c1ccc(O)c(O)c1; type: biochemical, Juglans regia; details: pH 6.0, 50 mM sodium phosphate, 2.5 mM SDS as activator, 25 °C
Description: as §2

[7] = substrate: O=C(O)/C=C/c1ccc(O)cc1; type: biochemical, Juglans regia; details: pH 6.0, 50 mM sodium phosphate, 2.5 mM SDS as activator, 25 °C
Description: as §2

[8] = substrate: CCOC(=O)c1cc(O)c(O)c(O)c1; type: biochemical, Juglans regia; details: pH 6.0, 50 mM sodium phosphate, 2.5 mM SDS as activator, 25 °C
Description: as §2

[9] = substrate: O=C(O)/C=C/c1ccc(O)c(O)c1; type: biochemical, Juglans regia; details: pH 6.0, 50 mM sodium phosphate, 2.5 mM SDS as activator, 25 °C
Description: as §2

[10] = substrate: NCCc1ccc(O)cc1; type: biochemical, Juglans regia; details: pH 6.0, 50 mM sodium phosphate, 2.5 mM SDS as activator, 25 °C
Description: as §2

[11] = substrate: NCCc1ccc(O)c(O)c1; type: biochemical, Juglans regia; details: pH 6.0, 50 mM sodium phosphate, 2.0 mM SDS as activator, 25 °C
Description: as §1

## Oc1cccc(O)c1O [compound 1, Pyrogallol]
jrPPO1
  Km: 1200 ± 130 µM
jrPPO2
  Km: 1000 ± 120 µM

B1: jrPPO2 (Juglans regia; D361N/D582N/F398L/S401P) (protein)
chain: APVSAPDITKCGKADFPAGAKPTNCCPPPSTKIIDFKLPTKNSPLRVRPAAHLADKEYIAKYNKAIELMKALPADDPRNFTQQANVHCAYCDGAYEQVGFPNLDLQVHNSWLFFPFHRYYLYFYEKILGKLIGDPTFALPFWNWDAPAGMQLPAMYANPKSSLYDALRNANHQPPTLMDLDYNGTDEETTSQDQLSANLSIMYRQMVSNGKNAKLFLGSAYRAGDEPDPGAGSIENIPHGPVHIWTGDNTQPNLENMGNFYSAGRDPIFFAHHSNVDRMWSIWKTLGGKRTDLTEPDWLNAGFLFYDENGQAVRVKVKDCLDTTKLGYVYQDVDLPWLKSKPTRKSKLKKVAKFFHLGHQGDVAIAAETSPSVNFPIVLDKVISTVVARPRKSRSKKEKEDEEEVLVIGAIEFDRDAPVKFDVFINDEDDSPTTRPDKTEFAGSFVNVPHKHKHGKKMNTCLRLGISDLLEDLDAENDDTIVVTLVPRYGKGLASINGIKIELLD
notes: latent enzyme (active domain plus C-terminal domain, no transit peptide), E. coli, pGEX-6P-1, N-terminal GST tag (absent by mass)
[1]
  Km: 4430 ± 550 µM
  kcat: 32.3 ± 2.18 s⁻¹
  kcat/Km: 7290 ± 1030 M⁻¹ s⁻¹
[2]
  Km: 920 ± 150 µM
  kcat: 19.6 ± 2.04 s⁻¹
  kcat/Km: 21300 ± 4120 M⁻¹ s⁻¹
[3]
  Km: 180 ± 40 µM
  kcat: 2.07 ± 0.18 s⁻¹
  kcat/Km: 11500 ± 2740 M⁻¹ s⁻¹
[4]
  Km: 790 ± 170 µM
  kcat: 186 ± 19.1 s⁻¹
  kcat/Km: 235000 ± 56100 M⁻¹ s⁻¹
[5]
  Km: 5660 ± 700 µM
  kcat: 132 ± 7.05 s⁻¹
  kcat/Km: 23300 ± 3140 M⁻¹ s⁻¹
[6]
  Km: 90 ± 20 µM
  kcat: 9.84 ± 0.52 s⁻¹
  kcat/Km: 109000 ± 25000 M⁻¹ s⁻¹
[7]
  Km: 940 ± 120 µM
  kcat: 0.37 ± 0.02 s⁻¹
  kcat/Km: 390 ± 50 M⁻¹ s⁻¹
[8]
  Km: 6600 ± 790 µM
  kcat: 59.5 ± 3.89 s⁻¹
  kcat/Km: 9020 ± 1220 M⁻¹ s⁻¹
[9]
  Km: 210 ± 20 µM
  kcat: 8.37 ± 0.2 s⁻¹
  kcat/Km: 39900 ± 3910 M⁻¹ s⁻¹
[10]
  Km: 490 ± 110 µM
  kcat: 9.14 ± 0.83 s⁻¹
  kcat/Km: 18700 ± 4650 M⁻¹ s⁻¹

B2: jrPPO2 (Juglans regia; D361N/D582N/F398L/G345N/S401P) (protein)
chain: APVSAPDITKCGKADFPAGAKPTNCCPPPSTKIIDFKLPTKNSPLRVRPAAHLADKEYIAKYNKAIELMKALPADDPRNFTQQANVHCAYCDGAYEQVGFPNLDLQVHNSWLFFPFHRYYLYFYEKILGKLIGDPTFALPFWNWDAPAGMQLPAMYANPKSSLYDALRNANHQPPTLMDLDYNGTDEETTSQDQLSANLSIMYRQMVSNGKNAKLFLGSAYRAGDEPDPGAGSIENIPHNPVHIWTGDNTQPNLENMGNFYSAGRDPIFFAHHSNVDRMWSIWKTLGGKRTDLTEPDWLNAGFLFYDENGQAVRVKVKDCLDTTKLGYVYQDVDLPWLKSKPTRKSKLKKVAKFFHLGHQGDVAIAAETSPSVNFPIVLDKVISTVVARPRKSRSKKEKEDEEEVLVIGAIEFDRDAPVKFDVFINDEDDSPTTRPDKTEFAGSFVNVPHKHKHGKKMNTCLRLGISDLLEDLDAENDDTIVVTLVPRYGKGLASINGIKIELLD
notes: as for B1
[10]
  Km: 210 ± 60 µM
  kcat: 10.9 ± 0.71 s⁻¹
  kcat/Km: 51900 ± 15300 M⁻¹ s⁻¹

B3: jrPPO1 (Juglans regia; N340G) (protein)
chain: DPVSAPELTLCSEADLPAGALPVNCCPPTSKKIKDFVLPSQNTPLRVRPAAHLVDNDYIAKYNKGIELMKSLPADDPRSFTQQANVHCAYCDGAYTQVGFPDLSLQVHECWLFFPFHRYYVYFFEKILGKLIGDPTFALPFWNWDSPPGMQLPSLYAVSNSAIYDPLRNANHQPPTIIDLDYGETSESTTTTDQVPSNLKIMYRQMVSGAKNPTLFFGSPYRAGDEPDPGAGTIESTPHGNIHLWTGDDTQPNIENMGNFYSAGRDPIFFAHHSNVDRMWTIWKTLGGKRKDITDPDWLNSSFFFYDENADPVRVKVKDCVDNTKLRYVYQDVEIPWLKTKPTPRKSRVKKVAKAFPAGHGGVAQAAETSSVKFPIVLDKVISTVVARPKKSRSKKEKDDEEEVLVIEGIEVERDIPVKFDVFINDEDDAPTGPGINTEFAGSFVSVPQQKQTKKKKTYLRIGISDLLEDLGAEDDDSVVVTLVPRFGKGKAIIGGIKIVLIG
notes: latent enzyme (active domain plus C-terminal domain, no transit peptide), expressed in E. coli from pGEX-6P-1 with N-terminal GST tag (tag absent by mass)
[11]
  Km: 490 ± 70 µM
  kcat: 300 ± 16.5 s⁻¹
  kcat/Km: 612000 ± 93700 M⁻¹ s⁻¹
